Source: US20220412975

Key:
[1] = biological target: T1, (HiLyteFluor-488)-DELSSMVLELRGLRT-K(QXL520)-E-NH2
T1 chain: DELSSMVLELRGLRTK

[2] = biological target: T2, TSP1-5 substrate, (HiLyteFluor-488)-SSMVLELRGLRT-K(QXL520)-NH2
T2 chain: SSMVLELRGLRTK

[3] = biological target: T3, TSP1-2 substrate, (HiLyteFluor-488)-SSMVLELRGLRTIVT-K(QXL520)-NH2
T3 chain: SSMVLELRGLRTIVTK

[4] = biological target: T4, TSP1-4 substrate, (HiLyteFluor-488)-EENKELANELRRPPL-K(QXL520)-NH2
T4 chain: EENKELANELRRPPLK

[5] = biological target: T5, TSP1-3 substrate, (HiLyteFluor-488)-KVTEENKELANELRR-K(QXL520)-NH2
T5 chain: KVTEENKELANELRRK

[6] = biological target: T6, COMP2 candidate peptide, (Donor) SPGFRC(Acm)EAC(Acm)PPGYS (K-Quencher)
T6 chain: SPGFRCEACPPGYS

[7] = biological target: T7, COMP1 candidate peptide, (Donor) GMQQSVRTGLPS (K-Quencher)
T7 chain: GMQQSVRTGLPS

[8] = biological target: T8, TSP1-1 substrate, (HiLyteFluor-488)-DELSSMVLELRGLRT-K(QXL520)-NH2
T8 chain: DELSSMVLELRGLRTK

B1: Rat/human ADAMTS-12 chimera, rPro-hCD (Rat 1-244/Human 241-543)-3xFLAG (protein)
chain: HGRQAQPWPVRFPDPKQEHFIKSLPEYHIVSPVQVDASGHFLSYGLHHPVTGSRKKRAAGGSGDQVYYRISHEEKNLFFNLTVNWEFLSNGYVVERRYGNLSHVKMAASSGQPCHLRGTVLQQGPTIRMGTAALSACQGLTGFFHLPHGDFFIEPVKKHPLTEEGYQPHVIYRRQSYRVPETKEPTCGLKDSLDNSVKQELQREKWERKNWPSRSLSRRSISKERWVETLVVADTKMIEYHGSENVESYILTIMNMVTGLFHNPSIGNAIHIVVVRLILLEEEEQGLKIVHHAEKTLSSFCKWQKSINPKSDLNPVHHDVAVLLTRKDICAGFNRPCETLGLSHLSGMCQPHRSCNINEDSGLPLAFTIAHELGHSFGIQHDGKENDCEPVGRHPYIMSRQLQYDPTPLTWSKCSEEYITRFLDRGWGFCLDDIPKKKGLKSKVIAPGVIYDVHHQCQLQYGPNATFCQEVENVCQTLWCSVKGFCRSKLDAAADGTQCGEKKWCMAGKCITVGKKPESIPGGGGSDYKDHDGDYKDHDIDYKDDDDK
[1]
  FRET peptide cleavage (increase of fluorescence intensity): It was surprisingly found that the same substrate could be used for the paralogs ADAMTS-7 and ADAMTS-12

B2: rADAMTS-7 (Rat 1-575)-Flag (protein)
chain: LPTEGRAGLDIVHPVRVDAGGSFLSYELWPRVLRKRDVSAAQASSAFYQLQYQGRELLFNLTTNPYLLAPGFVSEIRRRSNLSNVHIQTSVPTCHLLGDVQDPELEGGFAAISACDGLRGVFQLSNEDYFIEPLDEVPAQPGHAQPHMVYKHKRSGQQDDSRTSGTCGVQGSPELKHQREHWEQRQQKRRQQRSISKEKWVETLVVADSKMVEYHGQPQVESYVLTIMNMVAGLYHDPSIGNPIHITVVRLIILEDEEKDLKITHHADDTLKNFCRWQKNVNMKGDDHPQHHDTAILLTRKDLCATMNHPCETLGLSHVAGLCHPQLSCSVSEDTGLPLAFTVAHELGHSFGIQHDGTGNDCESIGKRPFIMSPQLLYDRGIPLTWSRCSREYITRFLDRGWGLCLDDRPSKGVINFPSVLPGVLYDVNHQCRLQYGPSSAYCEDVDNVCYTLWCSVGTTCHSKMDAAVDGTSCGKNKWCLNGECVPEGFQPETVDGGWSGWSAWSVCSRSCGVGVRSSERQCTQPVPKNKGKYCVGERKRYRLCNLQACPENLYFQGDYKDDDDK
[2]
  FRET peptide cleavage (Relative Fluorescence Units over time): along with S2 and S5 peptides containing the E289⬇L290 cleavage site
  kcat: 4.17e-05 s⁻¹
[3]
  FRET peptide cleavage (Relative Fluorescence Units over time): along with S2 and S5 peptides containing the E289⬇L290 cleavage site
  kcat: 0.000128 s⁻¹
[4]
  kcat: 4.33e-05 s⁻¹
[5]
  kcat: 2.33e-05 s⁻¹
[6]
  kcat: 8.33e-06 s⁻¹
[7]
  kcat: 8.17e-06 s⁻¹
[8]
  FRET peptide cleavage (Relative Fluorescence Units over time): Activity data from the rat ADAMTS-7 construct identified TSP1 S1 (SEQ ID NO: 4) as the substrate
  kcat: 0.000167 s⁻¹

B3: purified ADAMTS-7 E389Q catalytic inactive proteins (protein)
chain: SVSKEKWVETLVVADAKMVEYHGQPQVESYVLTIMNMVAGLFHDPSIGNPIHITIVRLVLLEDEEEDLKITHHADNTLKSFCKWQKSINMKGDAHPLHHDTAILLTRKDLCAAMNRPCETLGLSHVAGMCQPHRSCSINEDTGLPLAFTVAHQLGHSFGIQHDGSGNDCEPVGKRPFIMSPQLLYDAAPLTWSRCSRQYITRFLDRGWGLCLDDPPAKDIIDFPSVPPGVLYDVSHQCRLQYGAYSAFCEDMDNVCHTLWCSVGTTCHSKLDAAVDGTRCGENKWCLSGECVPVGFRPEAV
[2]
  FRET peptide cleavage (Relative Fluorescence Units over time): Significant activity was not observed with substrates ... with incubation with purified ADAMTS-7 E389Q catalytic inactive proteins (data not shown
[3]
  FRET peptide cleavage (Relative Fluorescence Units over time): Significant activity was not observed with substrates ... with incubation with purified ADAMTS-7 E389Q catalytic inactive proteins (data not shown
[4]
  FRET peptide cleavage (Relative Fluorescence Units over time): Significant activity was not observed with substrates ... with incubation with purified ADAMTS-7 E389Q catalytic inactive proteins (data not shown
[5]
  FRET peptide cleavage (Relative Fluorescence Units over time): Significant activity was not observed with substrates ... with incubation with purified ADAMTS-7 E389Q catalytic inactive proteins (data not shown
[6]
  FRET peptide cleavage (Relative Fluorescence Units over time): Significant activity was not observed with substrates ... with incubation with purified ADAMTS-7 E389Q catalytic inactive proteins (data not shown
[7]
  FRET peptide cleavage (Relative Fluorescence Units over time): Significant activity was not observed with substrates ... with incubation with purified ADAMTS-7 E389Q catalytic inactive proteins (data not shown
[8]
  FRET peptide cleavage (Relative Fluorescence Units over time): Significant activity was not observed with substrates ... with incubation with purified ADAMTS-7 E389Q catalytic inactive proteins (data not shown
